Results: patent US20100136005A1 (Genentech, published 2010)
Residue numbers refer to the chain shown, from its start.

How the values were obtained:
[1] = target: T1, human CD11a (human, UniProt P20701 26-1170); assay: cell-based or functional assay
[2] = target: T1, human CD11a; assay: cell-based or functional assay; remark: listed apart in the source
[3] = target: T2, rhesus CD11a (rhesus, UniProt H9Z8N3 26-1169); assay: cell binding, rhesus against human CD11a
T2 construct: whole, on cells; also called rhCD11a
T2 sequence: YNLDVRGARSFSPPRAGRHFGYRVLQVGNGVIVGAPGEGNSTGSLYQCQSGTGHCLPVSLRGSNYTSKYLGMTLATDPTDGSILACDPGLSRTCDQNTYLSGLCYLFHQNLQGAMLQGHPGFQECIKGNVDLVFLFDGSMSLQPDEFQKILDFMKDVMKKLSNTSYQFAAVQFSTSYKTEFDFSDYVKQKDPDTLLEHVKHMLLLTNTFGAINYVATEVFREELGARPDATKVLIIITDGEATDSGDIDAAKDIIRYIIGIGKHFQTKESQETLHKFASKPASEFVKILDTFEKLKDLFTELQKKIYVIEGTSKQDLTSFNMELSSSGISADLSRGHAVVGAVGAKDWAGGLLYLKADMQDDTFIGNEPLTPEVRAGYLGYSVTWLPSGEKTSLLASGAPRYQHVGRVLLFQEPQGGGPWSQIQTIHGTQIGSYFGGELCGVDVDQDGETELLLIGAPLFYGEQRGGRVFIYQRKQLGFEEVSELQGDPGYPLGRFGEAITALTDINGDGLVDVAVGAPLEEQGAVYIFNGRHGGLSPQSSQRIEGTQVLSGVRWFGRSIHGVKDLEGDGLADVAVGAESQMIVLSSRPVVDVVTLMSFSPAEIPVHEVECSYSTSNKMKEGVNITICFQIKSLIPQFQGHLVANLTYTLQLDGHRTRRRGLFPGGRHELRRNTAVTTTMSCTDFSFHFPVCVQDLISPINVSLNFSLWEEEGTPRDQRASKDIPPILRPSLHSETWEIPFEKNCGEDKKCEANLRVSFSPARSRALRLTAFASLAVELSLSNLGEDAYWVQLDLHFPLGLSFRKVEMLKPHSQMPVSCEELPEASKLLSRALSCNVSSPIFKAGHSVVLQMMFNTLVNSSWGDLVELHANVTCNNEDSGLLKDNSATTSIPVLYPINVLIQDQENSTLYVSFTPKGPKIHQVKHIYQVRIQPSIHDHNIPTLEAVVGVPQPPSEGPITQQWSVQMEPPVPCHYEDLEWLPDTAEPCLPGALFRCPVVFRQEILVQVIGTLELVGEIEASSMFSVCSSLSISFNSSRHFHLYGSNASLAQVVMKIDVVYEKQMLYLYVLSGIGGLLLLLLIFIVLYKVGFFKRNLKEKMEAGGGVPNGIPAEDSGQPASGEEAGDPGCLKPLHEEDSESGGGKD

[4] = target: T2, rhesus CD11a; assay: cell-based or functional assay
[5] = target: T3, rhesus-human chimeric CD11a (human (I-domain mutated to rhesus), UniProt P20701 26-1170); assay: cell-based or functional assay
T3 sequence (looked up): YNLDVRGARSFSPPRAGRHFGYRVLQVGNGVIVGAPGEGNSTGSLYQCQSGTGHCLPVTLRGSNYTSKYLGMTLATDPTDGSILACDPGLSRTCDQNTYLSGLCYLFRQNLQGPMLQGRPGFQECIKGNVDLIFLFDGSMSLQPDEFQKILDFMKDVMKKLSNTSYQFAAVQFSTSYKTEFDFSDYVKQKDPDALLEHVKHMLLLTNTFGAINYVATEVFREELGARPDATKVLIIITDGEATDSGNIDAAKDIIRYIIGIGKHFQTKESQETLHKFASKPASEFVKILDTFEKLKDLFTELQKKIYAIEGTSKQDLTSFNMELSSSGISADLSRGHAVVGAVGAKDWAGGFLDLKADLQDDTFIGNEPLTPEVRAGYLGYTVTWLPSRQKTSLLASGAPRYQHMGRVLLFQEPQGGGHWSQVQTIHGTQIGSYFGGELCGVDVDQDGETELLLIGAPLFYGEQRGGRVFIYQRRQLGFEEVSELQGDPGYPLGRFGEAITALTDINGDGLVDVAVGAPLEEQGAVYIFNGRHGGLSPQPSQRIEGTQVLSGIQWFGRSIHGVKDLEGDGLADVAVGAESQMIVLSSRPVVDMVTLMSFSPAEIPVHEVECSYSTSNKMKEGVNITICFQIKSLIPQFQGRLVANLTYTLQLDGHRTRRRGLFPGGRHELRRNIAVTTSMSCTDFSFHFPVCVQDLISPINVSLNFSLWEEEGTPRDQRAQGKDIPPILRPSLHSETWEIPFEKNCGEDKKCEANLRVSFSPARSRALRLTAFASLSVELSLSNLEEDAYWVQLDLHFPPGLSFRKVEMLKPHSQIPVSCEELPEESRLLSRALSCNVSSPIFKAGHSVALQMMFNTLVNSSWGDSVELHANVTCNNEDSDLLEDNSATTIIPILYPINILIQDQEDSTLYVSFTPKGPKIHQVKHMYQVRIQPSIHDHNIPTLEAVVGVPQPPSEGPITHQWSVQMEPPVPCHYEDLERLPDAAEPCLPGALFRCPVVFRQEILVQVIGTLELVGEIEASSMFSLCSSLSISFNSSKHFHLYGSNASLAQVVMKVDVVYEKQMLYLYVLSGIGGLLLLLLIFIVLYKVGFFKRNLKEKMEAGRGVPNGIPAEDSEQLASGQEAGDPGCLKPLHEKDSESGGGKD

[6] = target: T2, rhesus CD11a; assay: cell-based or functional assay; remark: listed apart in the source
[7] = target: T3, rhesus-human chimeric CD11a; assay: cell-based or functional assay; remark: listed apart in the source
[8] = target: T2, rhesus CD11a; assay: cell-based or functional assay; remark: listed apart in the source
[9] = target: T2, rhesus CD11a; assay: saturation binding, Kd(app) compared
Method: Antibody affinities were determined by saturation binding using either peripheral blood mononuclear cells (murine MHM24 and HuIgG1) or rhesus leukocytes (MHM23, RhIgG1). In each assay, a radiolabeled antibody was serially diluted in HBSS-0.2% gelatin in quadruplicate. Nonspecific binding was determined by the addition of 500 nM final concentration of homologous unlabeled antibody in duplicate through the serial dilution. Human lymphocytes or rhesus leukocytes were added to the plates in a volume of 170 μl per well. Plates were incubated for 2 hr at room temperature on an orbital plate shaker. After incubation, cells were harvested using a SKATRON™ cell harvester (Lier, Norway) and washed 10 times with PBS containing 0.25% gelatin and 0.1% sodium azide. Samples were then counted for 1 min in an LBK Wallac GammaMaster gamma counter (Gaithersburg, Md.). Data was transformed from counts per minute to nanomolarity and four-parameter curve-fitting of saturation plots (bound versus total) was then performed to determine Kd (app) values.

[10] = target: T2, rhesus CD11a; assay: binding to rhesus peripheral blood lymphocytes; end assigned by the printed EC50s
[11] = target: T2, rhesus CD11a; assay: rhesus EC50 of the variant against human EC50 of HuIgG1; end assigned by the printed EC50s
[12] = target: T2, rhesus CD11a; assay: binding to rhesus peripheral blood lymphocytes; ratio to HuIgG1 EC50 (45.6 nM)

B1: humanized MHM24 HuIgG1 (antibody, V domains shown)
VH: EVQLVESGGGLVQPGGSLRLSCAASGYSFTGHWMNWVRQAPGKGLEWVGMIHPSDSETRYNQKFKDRFTISVDKSKNTLYLQMNSLRAEDTAVYYCARGIYFYGTTYFDYWGQGTLVTVSS
VL: DIQMTQSPSSLSASVGDRVTITCRASKTISKYLAWYQQKPGKAPKLLIYSGSTLQSGVPSRFSGSGSGTDFTLTISSLQPEDFATYYCQQHNEYPLTFGQGTKVEIKR
notes: F(ab)-8 VL and VH fused to human constant light and IgG1 heavy chains; also called huMHM24
Question: How did the “IC50 Value (nM), Jurkat:HuK cell adhesion” value [1] turn out when B1 was run?
Answer: 0.13 nM

Question: What about the “IC50 Value (nM), human mixed lymphocyte response” value [2] of the same binder?
Answer: 0.38 nM

Question: What about the “fold reduction in binding (rhesus against human CD11a)” value [3] of the same binder?
Answer: ~1000 fold

B2: rhesus-binding MHM24 RhIgG1 (antibody, V domains shown)
VH: B1 VH with H52A, S54A, D55S, E57S
VL: B1 VL
notes: HuIgG1 variant, human IgG1; also called H2C12; rhesusized antibody
Question: Which results are given for B2?
Answer: fold less efficacious than MHM23, RhLy:HuICAM adhesion [4]: 4 fold; fold less efficacious than MHM23, RhLy:HuK adhesion [4]: 74 fold; fold down from MHM23, Rh/HuCD11a:HuK adhesion [5]: 4 fold; IC50 Value (nM), RhLy:HuICAM cell adhesion [6]: 5.3 nM; IC50 Value (nM), RhLy:HuK cell adhesion [6]: 119 nM; IC50 Value (nM), Rh/HuCD11a:HuK cell adhesion [7]: 4.9 nM; IC50 Value (nM), rhesus mixed lymphocyte response [8]: 23.4 nM; fold down from the Kd of HuIgG1 for human CD11a [9]: ~26 fold; fold improvement over the EC50 of HuIgG1 for rhesus CD11a [10]: 240 to 415 fold; fold weaker than the EC50 of HuIgG1 for human CD11a [11]: 3 to 5 fold

B3: SerL52Ala (antibody, human IgG1, V domains shown)
VH: B1 VH
VL: B1 VL with S52A
notes: HuIgG1 variant (human IgG1)
Question: B3 was tested. Which “Var.EC50/HuIgG1 EC50” value [12] did it give?
Answer: 13.3 ratio

B4: H2C11 (antibody, V domains shown)
VH: B1 VH with H52A, S54A, D55S, E57N
VL: B1 VL
Question: What does the source list for B4?
Answer: fold improvement over the EC50 of HuIgG1 for rhesus CD11a [10]: 240 to 415 fold; fold weaker than the EC50 of HuIgG1 for human CD11a [11]: 3 to 5 fold
